These results are taken from patent publication US20100221262A1 (Genentech, published 2010).

The target in assay [1] is T1, murine Netrin-1-Fc (Laminin V and VI homology domains, amino acid M1 to amino acid P455, fused to the Fc … (murine; human, UniProt O09118 25-455). Nature of the assay: SPR (ProteOn), Unc5B-His immobilised, mNetrin-1 injected at 250 nM. The protocol: (§1) Binding experiments were performed by surface plasmon resonance SPR measurements on a ProteOn XPR36 instrument (Bio-Rad Laboratories, Inc.) at 25° C. In accordance with common SPR terminology, proteins that are immobilized onto the sensor chip are referred to as ‘ligands’, whereas binding partners injected in solution are referred to as ‘analytes’.
(§2) For binding competition experiments human Unc5B-Fc and Unc5B-His proteins were used as ligands and immobilized at high surface densities (3000-4000 RU) on an activated ProteOn GLC sensor chip (Bio-Rad Laboratories, Inc.). Unc5B antibodies and Netrin-Fc were used as analytes. To perform binding assays, analytes and 1:1 molar mixtures of analytes were injected in PBS, 0.005% v/v Tween-20, pH 7.4, at a flow rate of 100 μl/min and sensorgrams for association and dissociation phases were recorded. Blank surfaces are used for background corrections. Analytes are injected for 240 s and allowed to dissociate for 600 s. […]
(§3) For the SPRs binding experiments Unc5B-His and -Fc proteins were immobilized onto a ProteOn GLC sensor chips and mNetrin-1, Unc5B antibodies or equimolar mixtures of Unc5B antibodies and Netrin-1 were injected as indicated at a concentration of 250 nM. Binding sensorgrams were recorded for association and dissociation reactions. […]

In assay [2] the target is T1, murine Netrin-1-Fc (Laminin V and VI …). Nature of the assay: SPR (ProteOn), Unc5B-Fc immobilised, mNetrin-1 injected at 250 nM. As for the experimental part:
as §1, §2, §3

B1: human Unc5B-His (two N-terminal Ig-like domains of Unc5B, amino acid M1 to amino acid V243, C-terminal Histidine tag) (receptor)
chain: not shown
notes: range 1-243; The cloned range M1-V243 includes the native signal peptide; also called human Unc5B-His tagged protein; not shown: C-terminal Histidine tag
As to B1, the binding result in assay [1] is “binds”.

B2: human Unc5B-Fc (two N-terminal Ig-like domains of Unc5B, amino acid M1 to amino acid V243, fused to the Fc portion of human IgG1) (Fc fusion)
chain: not shown
notes: range 1-243; not shown: Fc portion of human IgG1
In the case of B2, in assay [2], the binding result is on record as “binds”.
